One series concerns the target T1, NrnCBh (Bartonella henselae, UniProt A0A0R4J6U7).
T1 construct: gene rnd1
The experiment in a line: DraCALA nitrocellulose spot binding, radiolabelled ligand.

Series [1] addresses T2, NrnCBh (nano-RNase C) (Bartonella henselae, UniProt A0A0R4J6U7 1-206).
T2 sequence: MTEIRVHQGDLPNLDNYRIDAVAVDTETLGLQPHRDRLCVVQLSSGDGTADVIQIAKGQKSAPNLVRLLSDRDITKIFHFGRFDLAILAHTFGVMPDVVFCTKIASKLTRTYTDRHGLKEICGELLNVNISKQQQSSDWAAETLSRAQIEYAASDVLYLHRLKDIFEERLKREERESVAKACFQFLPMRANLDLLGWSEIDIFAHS
Description: DraCALA (nitrocellulose); DraCALA: 10 mM Tris-HCl pH 8, 100 mM NaCl, 5 mM CaCl2; temperature not stated. To be noted: protein: recombinant; tags: tag-less (His6-SUMO removed by Ulp-1); chain copies: 8.

The series “crystal structure” concerns the molecule itself. Description: crystal structure.
The series “SEC-MALS” deals with the molecule itself. Description: SEC-MALS.
In series [2] the target is T2, NrnCBh (nano-RNase C). The experiment in a line: cryo-EM; only 3' dinucleotide resolved; DraCALA: 10 mM Tris-HCl pH 8, 100 mM NaCl, 5 mM CaCl2; temperature not stated. The following applies: protein: recombinant; tags: tag-less (His6-SUMO removed by Ulp-1); chain copies: 8.
Series [3] has as its target T2, NrnCBh (nano-RNase C). Description: cryo-EM; DraCALA: 10 mM Tris-HCl pH 8, 100 mM NaCl, 5 mM CaCl2; temperature not stated. The following applies: protein: recombinant; tags: tag-less (His6-SUMO removed by Ulp-1); chain copies: 8.

Experimental findings from paper PMC8492067 (eLife, 2021) are described below.

Substitutions are numbered along the chain they refer to. Names may count otherwise.

In the case of `Nc1nc2c(ncn2[C@@H]2O[C@H](COP(=O)(O)O[C@H]3[C@@H](O)[C@H](n4cnc5c(=O)[nH]c(N)nc54)O[C@@H]3COP(=O)(O)O[C@H]3[C@@H](O)[C@H](n4cnc5c(N)ncnc54)O[C@@H]3COP(=O)(O)O)[C@@H](O)[C@H]2O)c(=O)[nH]1` [pAGG], the Kd at NrnCBh is 3490 nM.

Molecule `Nc1nc2c(ncn2[C@@H]2O[C@H](COP(=O)(O)O[C@H]3[C@@H](O)[C@H](n4cnc5c(=O)[nH]c(N)nc54)O[C@@H]3COP(=O)(O)O)[C@@H](O)[C@H]2O)c(=O)[nH]1` [pGG] came in with a Kd on NrnCBh of 17.7 nM.

B1: pAAAAAGG (ssRNA)
RNA: AAAAAGG
modifications: 5' phosphate
For B1, the Kd in the series with NrnCBh (nano-RNase C) [1] was 576 nM.

B2: Bartonella henselae nano-RNase C (NrnC), wild type (enzyme)
chain: T2 sequence
notes: also called NrnCBh; wild-type NrnCBh
For B2, the “stoichiometry N” value in the series “crystal structure” was 8.

B3: Bartonella henselae NrnC L31A (enzyme)
chain: T2 sequence with L31A
notes: L-wedge mutant
B3: the “stoichiometry N” value in the series “SEC-MALS” was 8.

B4: Bartonella henselae NrnC K103A (enzyme)
chain: T2 sequence with K103A
notes: Phosphate cap mutant
Take B4: in the series “SEC-MALS”, the “stoichiometry N” value is 8.

B5: Bartonella henselae NrnC H79A (enzyme)
chain: T2 sequence with H79A
notes: Phosphate cap mutant
In the case of B5, in the series “SEC-MALS”, the “stoichiometry N” value turned out to be 8.

B6: Bartonella henselae NrnC Y151A (enzyme)
chain: T2 sequence with Y151A
As to B6, the “stoichiometry N” value in “SEC-MALS” amounted to 8.

B7: Bartonella henselae NrnC H205A (enzyme)
chain: T2 sequence with H205A
Take B7: the “stoichiometry N” value in the series “SEC-MALS” came out at 8.

B8: Bartonella henselae NrnC D25A (enzyme)
chain: T2 sequence with D25A
B8: in “SEC-MALS”, the “stoichiometry N” value was 8.

B9: pAGG (ssRNA)
RNA: AGG
modifications: 5' phosphate
For B9, the binding result with NrnCBh (nano-RNase C) [2] was “binds”.

B10: pAAAGG (ssRNA)
RNA: AAAGG
modifications: 5' phosphate
For B10, the binding result in the series with NrnCBh (nano-RNase C) [3] is recorded as “binds”.

B11: Brucella melitensis nano-RNase C (NrnC), wild type (enzyme)
chain: MTIRFHRNDLPNLDNYQVDAVAIDTETLGLNPHRDRLCVVQISPGDGTADVIQIEAGQKKAPNLVKLLKDRSITKIFHFGRFDLAVLAHAFGTMPQPVFCTKIASKLTRTYTDRHGLKEICSELLDVSISKQQQSSDWAAEVLSQAQLEYAASDVLYLHRLKAVLEQRLERDGRTKQAEACFKFLPTRSELDLMGWAESDIFAHS
notes: also called NrnCBm
For the molecule B11, the “stoichiometry N” value in “crystal structure” was found to be 8.

For orientation: Kd means the constant that tells how readily two partners part at equilibrium. In general, stoichiometry N refers to the number of molecules, sites or subunits per partner or assembly.
